We go through 1 molecule from patent US20090253622A1, “USE OF TLR3 AGONISTS FOR THE TREATMENT OF NEURODEGENERATIVE DISORDERS” (Nederlandse Organisatie voor toegepast - …, priority 2006, published 2009).

For data set [1] the following is noted: purified recombinant protein in buffers similar to culture media; Steinmetz and colleagues; cited from earlier work.
A further data set concerns the target T1, TLR2 (Homo sapiens, UniProt O60603).
T1 construct: expressed in transfected cells; host or cells: HEK293
The data set can be described thus: HEK293 transfectant cells, TLR2 activation. In kind it is cell-based. The following applies: at levels of at least 50 μg/mL. Here is the method: (§1) Additional control experiments using murine astrocytes or transfected HEK293 cells were performed essentially as described previously by several other research groups.

A further data set deals with TLR3. Briefly: IL-6 release by astrocytes from wild-type mice (ELISA). It is filed as cell-based. The following applies: wild-type mouse astrocytes, 48 h. Here is the method: (§2) Astrocytes were cultured in poly L-lysine coated 96 well-flat-bottom plates at 1×10^4 cells per well in 100 l DMEM/HAM-F10 medium containing 10% FCS and antibiotic supplements for 24 h to obtain post-confluent cultures. Recombinant human stathmin was next added to astrocytes, and parallel control stimuli were performed with either poly I:C, an established TLR3 agonist, or ultrapure lipopolysaccharides, established TLR4 agonists. After addition of these stimuli astrocytes were incubated for another 48 h. Astrocyte culture supernatants were subsequently collected and using a commercial ELISA kit levels of IL-6 were determined, as a marker for TLR-mediated activation of murine astrocytes.
Background: ELISA stands for enzyme-linked immunosorbent assay.

For data set [2], the system named is immature human plasmacytoid dendritic cells (pre-DC). Briefly: Antibody-array profiling of 40 cytokines and chemokines in human pre-DC supernatants. In kind it is cell-based. The following applies: 50 μg/ml, 48 h. The protocol: To examine the effects of stathmin on the maturation and cytokine production of immature human plasmacytoid dendritic cells (pre-DC), such pre-DC were generated from samples of peripheral blood mononuclear cells by maturation of purified CD14^+ monocytes using GM-CSF and IL-4. The cells were subsequently exposed to 50 μg/ml stathmin and after 48 h, culture supernatants were collected and the accumulation of 40 different cytokines ands chemokines was evaluated by antibody-array profiling using a commercially available antibody array.

Data set [3] concerns astrocytes from TLR3-deficient mice. Briefly: IL-6 release by astrocytes from TLR3-deficient mice (ELISA). In kind it is cell-based. The note with it: TLR3-deficient mouse astrocytes, 48 h. Here is the method: as §2
The target in another data set is T2, TLR4 (Homo sapiens, UniProt O00206+Q9Y6Y9).
T2 construct: expressed in transfected cells; host or cells: HEK293
T2 sequence (O00206 24-839, species assumed): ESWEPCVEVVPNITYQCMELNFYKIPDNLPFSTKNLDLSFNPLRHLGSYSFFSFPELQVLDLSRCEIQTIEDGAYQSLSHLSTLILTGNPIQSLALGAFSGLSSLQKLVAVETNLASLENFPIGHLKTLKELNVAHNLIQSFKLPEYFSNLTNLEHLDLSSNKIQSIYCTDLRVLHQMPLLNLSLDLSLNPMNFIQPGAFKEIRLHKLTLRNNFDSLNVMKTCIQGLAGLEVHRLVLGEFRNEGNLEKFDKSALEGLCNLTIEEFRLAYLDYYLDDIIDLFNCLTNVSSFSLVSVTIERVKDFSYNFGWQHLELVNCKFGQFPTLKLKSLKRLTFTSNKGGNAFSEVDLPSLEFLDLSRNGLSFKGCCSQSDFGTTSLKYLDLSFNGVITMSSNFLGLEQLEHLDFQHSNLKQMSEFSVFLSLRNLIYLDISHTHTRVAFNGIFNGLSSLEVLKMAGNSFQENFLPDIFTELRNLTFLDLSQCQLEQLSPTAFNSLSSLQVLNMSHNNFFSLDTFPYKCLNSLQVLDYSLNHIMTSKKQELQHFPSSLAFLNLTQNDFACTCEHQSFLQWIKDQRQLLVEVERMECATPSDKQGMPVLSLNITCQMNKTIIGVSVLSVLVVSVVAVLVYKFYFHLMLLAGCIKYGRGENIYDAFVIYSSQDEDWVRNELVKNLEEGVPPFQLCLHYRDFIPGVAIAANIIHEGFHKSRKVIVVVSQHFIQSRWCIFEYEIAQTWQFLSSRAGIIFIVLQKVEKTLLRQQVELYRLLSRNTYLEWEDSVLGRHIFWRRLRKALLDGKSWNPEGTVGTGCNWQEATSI
T2 sequence (Q9Y6Y9 17-160 limits assumed, species assumed): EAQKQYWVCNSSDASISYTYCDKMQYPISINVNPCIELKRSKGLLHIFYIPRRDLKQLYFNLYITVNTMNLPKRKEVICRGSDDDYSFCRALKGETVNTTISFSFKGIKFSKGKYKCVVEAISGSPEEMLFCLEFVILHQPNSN
The data set can be described thus: HEK293 transfectant cells, TLR4 activation. In kind it is cell-based. The note with it: at levels of at least 50 μg/mL. Here is the method:
as §1

“Also recorded” adds a separate entry of the source.

T1 sequence (O60603 21-784, species assumed): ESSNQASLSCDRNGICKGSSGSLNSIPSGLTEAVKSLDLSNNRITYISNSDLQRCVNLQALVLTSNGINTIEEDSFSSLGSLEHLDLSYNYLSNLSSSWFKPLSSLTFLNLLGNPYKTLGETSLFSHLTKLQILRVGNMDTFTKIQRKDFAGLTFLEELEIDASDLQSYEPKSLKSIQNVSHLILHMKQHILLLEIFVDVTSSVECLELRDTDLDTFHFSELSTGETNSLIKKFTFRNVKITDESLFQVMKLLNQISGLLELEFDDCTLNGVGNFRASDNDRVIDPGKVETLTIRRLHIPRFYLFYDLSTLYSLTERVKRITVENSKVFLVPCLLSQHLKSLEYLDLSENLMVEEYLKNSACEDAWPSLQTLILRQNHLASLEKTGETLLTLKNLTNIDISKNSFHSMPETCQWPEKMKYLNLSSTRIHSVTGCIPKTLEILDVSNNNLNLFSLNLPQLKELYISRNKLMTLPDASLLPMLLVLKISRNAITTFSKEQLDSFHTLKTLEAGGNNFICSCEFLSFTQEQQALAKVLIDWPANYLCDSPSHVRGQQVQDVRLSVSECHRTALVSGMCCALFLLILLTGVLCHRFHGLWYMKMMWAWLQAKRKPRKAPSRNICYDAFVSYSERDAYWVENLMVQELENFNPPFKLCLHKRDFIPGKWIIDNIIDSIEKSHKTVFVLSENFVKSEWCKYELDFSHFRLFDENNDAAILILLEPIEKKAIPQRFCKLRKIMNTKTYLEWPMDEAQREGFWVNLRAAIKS

B1: stathmin: cytosolic phosphoprotein of 149 amino acids (SEQ ID NO: 1); purified recombinant human stathmin from a commercial source (protein)
chain: MASSDIQVKELEKRASGQAFELILSPRSKESVPEFPLSPPKKKDFSLEEIQKKLEAAEERRKSHEAEVLKQLAEKREHEKEVLQKAIEENNNFSKMAEEKITHKMEANKENREAQMAAKLERLREKDKHIEEVRKNKESKDPADETEAD
modifications: Human; (44)..(138) Stathmin-like alpha helix domain
notes: purified recombinant human stathmin from a commercial source
In the case of B1, in data set [1], the “fraction structurally ordered into alpha helix” value is 40-60%. Moreover, in the data set with TLR2, the “response of HEK293 transfectant cells via TLR2” value is “does not contain any endotoxin contaminants that trigger responses”. Also, in the data set on TLR3, the IL-6 release result was “dose-dependent IL-6 induction; also recorded: marked IL-6 release”. Also, the “reduction of levels of the p70 subunit of IL-12” value in data set [2] is given as “two-fold”. Also, in data set [2] (vs untreated control), the CXCL8 induction ratio was above 1.5, the IL-10 induction ratio is on record as above 1.5, the MCP-1 induction ratio is reported as above 1.5 and the “p40 subunit of IL-12 induction ratio” value is recorded as above 1.5. For the same molecule, the IL-6 release entry in data set [3] was “completely absent; also recorded: fully abrogated”. Further, the “response of HEK293 transfectant cells via TLR4” value in the data set with TLR4 was “does not contain any endotoxin contaminants that trigger responses”.
